These results are taken from publication PMC9276737.

What all share (details): 2 nM 32P-labelled DNA; binding buffer, salt, pH and temperature only by reference (refs 50, 51); native 6% polyacrylamide gel for EMSA
(In general: Mobility shift assays separate free from complexed probe on a gel.)

Data set [1] deals with T1, PclR-His (Streptococcus pneumoniae R6) (UniProt Q8DP24).
T1 sequence: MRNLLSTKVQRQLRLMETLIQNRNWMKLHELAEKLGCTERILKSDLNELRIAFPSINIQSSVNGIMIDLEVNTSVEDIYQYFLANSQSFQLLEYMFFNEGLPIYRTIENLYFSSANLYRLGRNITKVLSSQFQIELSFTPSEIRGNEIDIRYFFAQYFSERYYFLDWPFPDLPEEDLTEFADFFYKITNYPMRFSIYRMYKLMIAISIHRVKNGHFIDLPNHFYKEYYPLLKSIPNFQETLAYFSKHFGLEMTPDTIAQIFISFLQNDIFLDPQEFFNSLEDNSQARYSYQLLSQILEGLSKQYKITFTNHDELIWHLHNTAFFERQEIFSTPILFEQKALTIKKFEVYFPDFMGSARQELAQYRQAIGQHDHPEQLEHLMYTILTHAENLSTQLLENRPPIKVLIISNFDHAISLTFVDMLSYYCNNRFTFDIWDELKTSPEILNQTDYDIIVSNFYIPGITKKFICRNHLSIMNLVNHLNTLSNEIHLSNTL
Nature of the data set: DNase I footprinting.

The target in data set [2] is T2, MgaSpn-His (Streptococcus pneumoniae R6) (UniProt Q8DNN5).
T2 sequence: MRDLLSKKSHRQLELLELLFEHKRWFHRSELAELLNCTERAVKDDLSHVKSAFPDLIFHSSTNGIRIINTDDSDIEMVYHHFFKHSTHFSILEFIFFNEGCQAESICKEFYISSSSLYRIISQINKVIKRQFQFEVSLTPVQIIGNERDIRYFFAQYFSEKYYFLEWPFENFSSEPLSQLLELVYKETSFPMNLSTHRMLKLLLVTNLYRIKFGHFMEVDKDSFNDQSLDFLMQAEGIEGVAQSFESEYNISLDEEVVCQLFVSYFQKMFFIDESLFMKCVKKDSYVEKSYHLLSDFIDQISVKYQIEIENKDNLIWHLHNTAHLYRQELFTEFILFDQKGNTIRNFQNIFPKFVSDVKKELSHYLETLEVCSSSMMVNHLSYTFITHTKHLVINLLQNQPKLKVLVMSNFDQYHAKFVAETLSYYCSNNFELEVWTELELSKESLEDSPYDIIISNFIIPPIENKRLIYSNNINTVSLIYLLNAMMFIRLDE
Nature of the data set: DNase I footprinting.

The target in data set [3] is T2, MgaSpn-His (Streptococcus pneumoniae R6). Nature of the data set: EMSA.
For data set [4], the target named is T1, PclR-His (Streptococcus pneumoniae R6). Nature of the data set: EMSA.

In the case of “CAAATTCTTTAATTGTTGCTATTATATAATTTTTAAAATTAAAAATATAATCTTTAGACTTGAATTTGATTCTGTATTCACGCCCTCAATAGACGGTAAAATAAGAAAATTGTTTATATATTGTCTCCGTAGTGTTATTATACGAAATAAAAGATTTTAGGAAAAGTCGTTATATCATGCTATACCTATTCTTTGTGGTATAATTGCAAGAGGTTTAATCCG (double strand) [222-bp P1623B promoter fragment]”, the binding entry in data set [1] is “no binding”.
Take “CGGCTAGTTCATGTAATTTCATCCAATTACGATTCTGAATTAGGGTTTCCATTAAGCGTAATTGTCTTTGAACTTTTGTGGATAAAAGGTTTCTCATACGGGTATTTCCTCCATAATTCATTATATCTTTTTTTGTCTAAGTAGTATAAAAAAATTAGAGCAAGAAAATTGTCGTTAGTAATCGGAAAAATTAGAATAATATAAGTGGCTTTTAAGTGCAAAAACAGAATATATTAATTGTTCAGAAAATATTGATTAATGCCTCAAATAGTTGTACATTG (double strand) [281-bp PpclA promoter fragment]”: the binding entry in data set [2] and in data set [1] was “binds” in each case.
Turning to “CTCCTAGATAGTATTTTATAGTTTACAATGTACAACTATTTGAGGCATTAATCAATATTTTCTGAACAATTAATATATTCTGTTTTTGCACTTAAAAGCCACTTATATTATTCTAATTTTTCCGATTACTAACGACAATTTTCTTGCTCTAATTTTTTTATACTACTTAGACAAAAAAAGATATAATGAATTATGGAGGAAATACCCGTATGAGAAACCTTTTATCCACAAAAGTTCAAAGACAATTACGCTTAATGGAAACCCTAATTC (double strand) [270-bp PpclA promoter fragment]”, the binding result in data set [3], in data set [4], in data set [2] and in data set [1] was “binds” each time.
